The source of these data is article PMC6834678.

Assay [1] deals with C1q (of human serum) (human (endogenous in human serum)) (UniProt P02745).
Assay [2] has as its target wt-IgG4 (class-switched IgG4 variant of Trastuzumab, wild-type Fc) (human). The experiment in a line: SPR; antibody variants immobilised on CM5 chip (~500 RU, amine coupling); hFcRn:hβ2m dimer injected at serial dilutions (1000-40 nM) in PBS, pH 5.8, 30 μL/min; KD from steady-state isotherms or from kinetics with a 1:1 Langmuir mass transfer model. On the technique in general: In SPR one partner is held on a chip, and binding of the other changes the refractive index at the surface.

Assay [3] has as its target N434S-IgG1 (Trastuzumab IgG1 with N434S) (human). Described as above.
Assay [4] addresses DHS-IgG4 (class-switched IgG4 variant of Trastuzumab with the DHS mutations) (human). The description is as above.
The target of assay [5] is EDH-IgG1 (Trastuzumab IgG1 with V264E, L309D, Q311H) (human). The description is as above.
Assay [6] concerns the target wt-IgG3 (class-switched IgG3 variant of Trastuzumab, G3m16 allotype with H435, wild-type Fc) (human). The assay is described as above.
Assay [7] addresses DHS-IgG3 (class-switched IgG3 variant of Trastuzumab, G3m16 allotype with H435, with the DHS mutations) (human). The assay is described as above.

UniProt P02745, sequence (P02745 23-245, chain 1 of 3): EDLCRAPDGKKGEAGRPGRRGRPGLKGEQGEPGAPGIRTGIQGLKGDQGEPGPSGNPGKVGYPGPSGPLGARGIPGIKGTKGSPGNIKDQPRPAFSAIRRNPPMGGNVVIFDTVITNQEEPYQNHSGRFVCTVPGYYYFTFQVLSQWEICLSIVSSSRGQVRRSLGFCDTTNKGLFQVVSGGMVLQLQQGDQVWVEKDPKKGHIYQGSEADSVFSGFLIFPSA
UniProt P02745, sequence (P02746 28-253, chain 2 of 3, further chain): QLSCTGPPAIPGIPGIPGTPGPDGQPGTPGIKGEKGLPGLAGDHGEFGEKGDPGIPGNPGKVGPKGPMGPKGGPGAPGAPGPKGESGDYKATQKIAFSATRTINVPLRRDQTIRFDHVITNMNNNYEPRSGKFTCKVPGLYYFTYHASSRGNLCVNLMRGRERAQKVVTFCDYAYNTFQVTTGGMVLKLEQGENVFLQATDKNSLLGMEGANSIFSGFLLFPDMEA
UniProt P02745, sequence (P02747 29-245, chain 3 of 3, further chain): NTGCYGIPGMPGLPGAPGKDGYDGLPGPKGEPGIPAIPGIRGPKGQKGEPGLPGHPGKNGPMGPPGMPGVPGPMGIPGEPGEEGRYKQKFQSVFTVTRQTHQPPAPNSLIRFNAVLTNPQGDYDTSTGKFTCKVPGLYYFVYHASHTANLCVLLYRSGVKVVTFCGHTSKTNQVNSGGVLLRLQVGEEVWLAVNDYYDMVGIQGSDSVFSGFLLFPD

On to “DHS-Rituximab IgG1 (anti-CD20 IgG1 with L309D/Q311H/N434S) (antibody)”, for which, in assay [1], the CDC of Raji cells with 25% human serum against antibody concentration; potency (name of the quantity not given) was 0.7 µg/mL.

In assay [1], “LS-Rituximab (anti-CD20 IgG1 with M428L/N434S) (antibody)” showed a CDC of Raji cells with 25% human serum against antibody concentration; potency (name of the quantity not given) of 1.9 µg/mL.

For “human FcRn/human β2m complex (hFcRn:hβ2m dimer) (from UniProt P55899 24-297; P61769 21-119)”, the Kd (commonly the constant that tells how readily two partners part at equilibrium) in assay [2] was found to be 2460 nM; in assay [3], 220 nM; in assay [4] it was 832 nM; in assay [5], 487 nM; in assay [6], 4080 nM; in assay [7] it was 739 nM.
